Laboratory results published in publication PMC11983104 (Nucleic Acids Research, 2025).

Target: GST-NLE1-Ubl WT (human, UniProt Q9NVX2 11-104)
Assay: ITC

Chain of GST-NLE1-Ubl WT (Q9NVX2 11-104): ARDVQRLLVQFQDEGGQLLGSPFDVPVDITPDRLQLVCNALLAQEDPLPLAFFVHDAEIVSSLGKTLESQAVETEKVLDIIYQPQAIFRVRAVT

Kd: 5.5 nM
B1: MDN1-MIDAS-(His)6 (domain or fragment)
chain: ELERQLEMWQPRESGNPEEEKVAAEMWQSYLILTAPLSQRLCEELRLILEGSGKPSKRQYQICLAIDDSSSMVDNHTKQLAFESLAVIGNALTLLEVGQIAVCSFGESVKLLHPFHEQFSDYSGSQILRLCKFQQKKTKIAQFLESVANMFAAAQQLSQNISSETAQLLLVVSDGRGLFLEGKERVLAAVQAARNANIFVIFVVLDNPSSRDSILDIKVPIFKGPGEMPEIRSYMEEFPFPYYIILRDVNALPETLSDALRQWFELVTASDHP
